In one assay the target is Aβ(1-42) fibrils (human). Nature of the assay: fibril pull-down: antibody incubated 20 h at 37 °C with Aβ(1-42) fibrils, centrifuged; SDS-PAGE densitometry of the heavy chain in pellet and supernatant.
Assay [1] concerns the target Aβ(1-42) globulomer (human). Nature of the assay: dot blot densitometry; reference: Aβ(1-40) monomer.
For assay [2], the target named is Aβ(1-42) globulomer (human). Nature of the assay: dot blot densitometry; reference: Aβ(1-42) monomer.
Another assay deals with Aβ(1-40) monomer (human). Nature of the assay: dot blot, 10 pmol antigen on nitrocellulose, 0.2 µg/ml antibody, densitometry.
Assay [3] has as its target Aβ(1-42) globulomer (human). The description is as above.
Assay [4] addresses Aβ(1-42) monomer, HFIP pretreated (human). The assay is described as above.

This is an account of results in patent US20090232801A1.

Chain of Aβ(1-42) globulomer (human) (peptide, as listed by the source): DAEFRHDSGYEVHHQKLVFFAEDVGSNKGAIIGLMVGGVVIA
Chain of Aβ(1-40) monomer (human) (peptide, as listed by the source): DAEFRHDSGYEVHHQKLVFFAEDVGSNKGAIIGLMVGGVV

In the assay with Aβ(1-42) fibrils (human), “mMAb 6E10 (Signet Inc. Cat.#9320) (antibody)” registered a Fibril bound Ab fraction of 91%.

Consider mouse monoclonal antibody 4G8, for which the Ratio RD Aβ(1-42) globulomer/RD Aβ(1-40) monomer in assay [1] was 10. For the same substance, the Ratio RD Aβ(1-42) globulomer/RD Aβ(1-42) monomer in assay [2] turned out to be 0.42. The Reflective Density (RD) [10 pmol] was determined as 0.15 RD in the assay with Aβ(1-40) monomer (human), 1.5 RD in assay [3] and 3.5 RD in assay [4].

unspecific antibody IgG2a had a Fibril bound Ab fraction with Aβ(1-42) fibrils (human) of 9%.
